± gives the standard deviation of the averaged measurements.
test system: Saccharomyces cerevisiae; test: protein stability index of tFT-peptide fusion (C-terminal peptide) (PSI (0-1 scale)); higher = more stable (slower turnover); details: genetic background: wild type; temperature: 30 C
Protocol: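 Multiplexed protein stability (MPS) profiling in S. cerevisiae. Random 12-aa peptides (tFT-X12 library) are fused to the C-terminus of a sfGFP-mCherry tandem fluorescent timer, after mCherry and a GGGS linker. Cells are FACS-sorted into 8 mCherry/sfGFP bins and deep-sequenced. The protein stability index (PSI) is the read-weighted bin average, scaled from 0 (unstable) to 1 (stable). Only peptides with >10 reads are reported; cells were grown at 30 °C in SC-His with glucose.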
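Also: PSI is a weighted mean of sequencing reads over stability bins, variants kept only with over 10 reads, mCherry proximal and sfGFP distal, peptide attached via GGGS linker.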

Row | Sequence | protein stability index
1 | KGINALICTGSI | 0.6601 ± 0.0043
2 | KGKKRKKKRNFR | 0.68 ± 0.031
3 | KGKRMSRLYSCG | 0.667 ± 0.012
4 | KGRGKRRGARAT | 0.73 ± 0.053
5 | KGRNYVGRIRNN | 0.509 ± 0.024
6 | KGVWLGGGCGLR | 0.685 ± 0.025
7 | KHKAQQGSHGPQ | 0.616 ± 0.017
8 | KHTGFAGGMTWT | 0.707 ± 0.016
9 | KIANNEIEYARD | 0.598 ± 0.037
10 | KIERSKKKRRKG | 0.66 ± 0.079
11 | KIIKIHLFWGII | 0.478 ± 0.041
12 | KIIKIKKQGENK | 0.597 ± 0.016
13 | KIIQDCSSLSKK | 0.683 ± 0.033
14 | KIKKNKKKKRIN | 0.658 ± 0.026
15 | KIKKTITKNTKR | 0.726 ± 0.0082
16 | KIKNNIKKKKNR | 0.697 ± 0.024
17 | KILAVKIRRLYL | 0.532 ± 0.018
18 | KINRTKTAPITR | 0.724 ± 0.044
19 | KIRRKIRIYKRK | 0.629 ± 0.1
20 | KKCSNNPMTLRI | 0.655 ± 0.032
21 | KKEGEREQGVRW | 0.703 ± 0.037
22 | KKEKKKTKKEKR | 0.696 ± 0.067
23 | KKEKKQRKKING | 0.672 ± 0.075
24 | KKENKQEKKNMI | 0.709 ± 0.016
25 | KKEQRKKRQQKT | 0.6958 ± 0.0066

Row | Sequence | protein stability index
26 | KKGRAEKKKRRK | 0.65 ± 0.051
27 | KKICLEWMLLQS | 0.7011 ± 0.0067
28 | KKIKKKRTEPQP | 0.694 ± 0.02
29 | KKIKKRNIKKKT | 0.67 ± 0.032
30 | KKKANEMGKNRE | 0.715 ± 0.028
31 | KKKEKKRGRRKV | 0.688 ± 0.073
32 | KKKIKKKKEKNT | 0.664 ± 0.032
33 | KKKIKKQKKKQI | 0.70912 ± 0.00033
34 | KKKKIEEKKDCK | 0.715 ± 0.023
35 | KKKKKEKKQERK | 0.69526 ± 0.00024
36 | KKKKKINRKKKK | 0.705 ± 0.14
37 | KKKKKKKKKKKN | 0.595 ± 0.034
38 | KKKKKKTTPKTN | 0.745 ± 0.038
39 | KKKKKKYRKKKK | 0.668 ± 0.0087
40 | KKKKKQRGKKQK | 0.722 ± 0.014
41 | KKKKKQRMKRNG | 0.674 ± 0.049
42 | KKKKKRGKTKKK | 0.734 ± 0.055
43 | KKKKKTKEINLK | 0.6698 ± 0.00079
44 | KKKKKTNKDKGQ | 0.66 ± 0.067
45 | KKKKMKKNKERK | 0.708 ± 0.049
46 | KKKKNKKNKKQY | 0.676 ± 0.074
47 | KKKKQNKKKIKK | 0.68 ± 0.086
48 | KKKKYKKKRKIK | 0.74 ± 0.015
49 | KKKNKEQTKKTK | 0.719 ± 0.024
50 | KKKNQGKKKIKK | 0.699 ± 0.085

Row | Sequence | protein stability index
51 | KKKNTKKKNEQS | 0.725 ± 0.014
52 | KKKQKKKKHEQK | 0.7 ± 0.034
53 | KKKQMREQPKNE | 0.7315 ± 0.0047
54 | KKKRDKKGKKKQ | 0.697 ± 0.012
55 | KKKSKKKNKKKE | 0.766 ± 0.11
56 | KKKVEIKCRKRQ | 0.667 ± 0.0067
57 | KKLELLNRDRKV | 0.641 ± 0.042
58 | KKLKKTTNQTKK | 0.616 ± 0.022
59 | KKLNKNKSKINR | 0.683 ± 0.01
60 | KKMMQNKKQTEI | 0.727 ± 0.036
61 | KKNEKGSKGAEY | 0.66 ± 0.03
62 | KKNKKKKKRARY | 0.707 ± 0.038
63 | KKNYKNIEKKET | 0.658 ± 0.11
64 | KKQKKEKKKSHK | 0.757 ± 0.068
65 | KKQLIPPKHHQR | 0.661 ± 0.022
66 | KKRKKKKIIQTK | 0.65 ± 0.11
67 | KKRNKNKKTKEE | 0.68 ± 0.0099
68 | KKRRPKINEIKE | 0.643 ± 0.013
69 | KKRVHNRKEETE | 0.691 ± 0.091
70 | KKTERRNKKKIR | 0.695 ± 0.031
71 | KKTKKKKQTKRK | 0.677 ± 0.038
72 | KKVRTNTSKEIK | 0.692 ± 0.15
73 | KKWKKKNNKRNG | 0.707 ± 0.17
74 | KLDDEVLFKRNI | 0.692 ± 0.057
75 | KLKEDRRIGRNR | 0.668 ± 0.033

Row | Sequence | protein stability index
76 | KLKTTEKTNPRE | 0.805 ± 0.14
77 | KLQKTKNPKSNT | 0.6624 ± 0.0046
78 | KLTKGKIQLHIK | 0.593 ± 0.017
79 | KMIDNKQKSVAV | 0.675 ± 0.012
80 | KMRKIRSKRLKW | 0.681 ± 0.028
81 | KNDKHQTRKSTT | 0.703 ± 0.11
82 | KNKENLNINNKR | 0.747 ± 0.0078
83 | KNKQQKKNKQKR | 0.643 ± 0.045
84 | KNKRKTNLRKKT | 0.6961 ± 0.00039
85 | KNMNQIKKKNRE | 0.664 ± 0.061
86 | KNNERIDKRKKI | 0.726 ± 0.063
87 | KNNKEKQKKKKR | 0.663 ± 0.084
88 | KNNKNQKELDTK | 0.677 ± 0.065
89 | KNPSLSSPLPHP | 0.6908 ± 0.0041
90 | KNSKNIRNKTNE | 0.711 ± 0.017
91 | KNSTKHIKNEKN | 0.774 ± 0.044
92 | KNTRLKKEKVSR | 0.829 ± 0.23
93 | KPCGRAEERRSG | 0.674 ± 0.035
94 | KPLDPNRHVIPG | 0.652 ± 0.021
95 | KPLLSPPTIFPL | 0.711 ± 0.032
96 | KPQQKQEKLTNP | 0.736 ± 0.043
97 | KPYKTYKIIKRE | 0.6578 ± 0.0028
98 | KQFKFPLRVIRA | 0.519 ± 0.024
99 | KQKKAETQATQK | 0.678 ± 0.038
100 | KQPGAGGGEVGG | 0.6555 ± 0.002

Row | Sequence | protein stability index
101 | KQRGSKVIIKVD | 0.663 ± 0.011
102 | KQRGSNYGCGYG | 0.615 ± 0.026
103 | KQWGTHSSWLEV | 0.701 ± 0.076
104 | KREEGKTKKKKQ | 0.666 ± 0.023
105 | KREKAQEGQGGD | 0.709 ± 0.025
106 | KRESNSKQTEKV | 0.7 ± 0.099
107 | KRGNEEYSRGNN | 0.692 ± 0.012
108 | KRGNGIEGRVGG | 0.685 ± 0.011
109 | KRKKNISKTEKS | 0.724 ± 0.016
110 | KRKKNTRENGED | 0.778 ± 0.022
111 | KRKRSERRRGKP | 0.693 ± 0.015
112 | KRMPDERAKAGP | 0.694 ± 0.0079
113 | KRNCVVLLPMDR | 0.682 ± 0.23
114 | KRNEQQKNDRKK | 0.653 ± 0.046
115 | KRRIGKYEERME | 0.661 ± 0.022
116 | KRRKREEKKSMT | 0.742 ± 0.097
117 | KRRTGKEGRIRR | 0.723 ± 0.021
118 | KSDSRISGTVVV | 0.652 ± 0.059
119 | KSDTAWSHPYPS | 0.6793 ± 0.00097
120 | KSEKQKSNRKEF | 0.686 ± 0.071
121 | KSGEHSCCRSAD | 0.602 ± 0.038
122 | KSKKQYTKKTRK | 0.709 ± 0.0078
123 | KSKLSSRTKLTH | 0.64 ± 0.03
124 | KSKTENKEKATK | 0.716 ± 0.1
125 | KSLNTAGVLTGR | 0.68 ± 0.034

Row | Sequence | protein stability index
126 | KSPIPMRAPGNS | 0.633 ± 0.053
127 | KSQKKKKKNKNF | 0.57 ± 0.044
128 | KSSAGAGQCPLS | 0.712 ± 0.019
129 | KSYKRICTKKSR | 0.782 ± 0.096
130 | KTDSEPNKRIHK | 0.707 ± 0.09
131 | KTEGQEKRVMSE | 0.734 ± 0.046
132 | KTKDGKNNRRTN | 0.687 ± 0.009
133 | KTKEETNENRNL | 0.719 ± 0.027
134 | KTNWKKKERKKA | 0.675 ± 0.027
135 | KTQNVNDQGEET | 0.644 ± 0.062
136 | KTTERRQTKSRV | 0.688 ± 0.085
137 | KTVPRMESRVRA | 0.718 ± 0.053
138 | KVKREEKRKRED | 0.712 ± 0.033
139 | KVLGRPVGMAYI | 0.666 ± 0.034
140 | KVWGPAVPAVPP | 0.666 ± 0.065
141 | KWNVFRKGRGNI | 0.793 ± 0.047
142 | KYTSQRSPRIFR | 0.573 ± 0.2
143 | KYVYFAPVLDVI | 0.659 ± 0.033
144 | LAAGGSAGTRVV | 0.656 ± 0.026
145 | LAAVCFYPFCCF | 0.641 ± 0.017
146 | LACWAGGLGWGG | 0.772 ± 0.044
147 | LAFPFSPLAPQI | 0.691 ± 0.077
148 | LAGNNVSFMRVR | 0.714 ± 0.059
149 | LAGPYGRVTVFF | 0.67 ± 0.029
150 | LAHACQRRQTEA | 0.786 ± 0.11

Row | Sequence | protein stability index
151 | LALTIVKFGDLS | 0.789 ± 0.057
152 | LAPASPTHPHPP | 0.679 ± 0.0087
153 | LAPLYFSPFPFP | 0.689 ± 0.041
154 | LAPPHLPPPLHK | 0.678 ± 0.053
155 | LAPPPPVPPTHS | 0.721 ± 0.052
156 | LARGPDETPAGA | 0.668 ± 0.18
157 | LASPPIIVFSQM | 0.556 ± 0.016
158 | LATGLVIETLWE | 0.753 ± 0.042
159 | LAVGAAGVLFGG | 0.776 ± 0.03
160 | LAVLRFHLRRHL | 0.668 ± 0.065
161 | LAVSSAPLLSSF | 0.723 ± 0.071
162 | LCACRMVGFRGG | 0.538 ± 0.045
163 | LCCTLPSRGVIV | 0.5993 ± 0.0059
164 | LCGGLSLPFAHV | 0.691 ± 0.097
165 | LCLFPSSFRLPP | 0.6489 ± 0.0051
166 | LCMGVRGRVGVF | 0.682 ± 0.088
167 | LCPGYVDSRCRG | 0.6959 ± 0.0034
168 | LCRVFAGFLSVG | 0.689 ± 0.036
169 | LCSIESGPICIL | 0.676 ± 0.0097
170 | LCSSASFFFSVL | 0.67 ± 0.059
171 | LCSSSLRPFFPE | 0.754 ± 0.024
172 | LCSTSLTPMRPT | 0.699 ± 0.021
173 | LCTALLRSLTVG | 0.744 ± 0.13
174 | LCWGGRCGSGPG | 0.72 ± 0.051
175 | LDLELNRRCRTS | 0.675 ± 0.06

Row | Sequence | protein stability index
176 | LDLYRYLQDLGC | 0.731 ± 0.018
177 | LDSWKQDLYTVC | 0.674 ± 0.033
178 | LDTVVNGAIPIL | 0.699 ± 0.051
179 | LDVQPVHPVDPE | 0.778 ± 0.013
180 | LEAINRKGIWQE | 0.639 ± 0.083
181 | LEFFPSSRFFGF | 0.773 ± 0.026
182 | LEITKKKIGLKY | 0.716 ± 0.13
183 | LETVPVPPPPSA | 0.747 ± 0.057
184 | LETVWRFECGWG | 0.7759 ± 0.0048
185 | LEWVRPCDLFPC | 0.7198 ± 0.005
186 | LFDLVVDSYGHI | 0.753 ± 0.034
187 | LFFFPPVPISSV | 0.601 ± 0.0008
188 | LFFSIVSPPCGR | 0.748 ± 0.068
189 | LFGLLSSPLCVD | 0.63 ± 0.042
190 | LFLFPPVLTFPL | 0.625 ± 0.035
191 | LFLRPSGLPTLL | 0.69 ± 0.083
192 | LFLSAFFFRFFD | 0.629 ± 0.045
193 | LFPAGSSLCGAI | 0.753 ± 0.061
194 | LFPGVHRVEDRA | 0.675 ± 0.034
195 | LFPRSVPIAINL | 0.6259 ± 0.0045
196 | LFPSFRSLSFVI | 0.672 ± 0.035

From the supplement of paper PMC10724198
